# Entries after “also recorded” stand apart in the source; their conditions may differ.
# T1: JAML binding with CAR (Homo sapiens, UniProt Q86YT9)
# T1 construct: soluble JAMLD1D2 was truncated and tagged after residue Leucine259; made in house; host or cells: HEK293T (sJAML-His)
# T1 sequence (Q86YT9 20-259): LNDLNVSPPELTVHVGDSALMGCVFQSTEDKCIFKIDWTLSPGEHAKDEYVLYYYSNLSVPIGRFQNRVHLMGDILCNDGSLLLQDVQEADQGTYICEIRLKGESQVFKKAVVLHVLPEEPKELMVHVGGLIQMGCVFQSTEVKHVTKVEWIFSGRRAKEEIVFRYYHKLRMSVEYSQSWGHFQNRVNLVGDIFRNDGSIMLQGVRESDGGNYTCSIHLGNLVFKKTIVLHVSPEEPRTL
# T2: CAR binding to JAML on CHO cells (Homo sapiens, UniProt Q86YT9)
# T2 construct: expressed in transfected cells
# T2 sequence (Q86YT9 20-394): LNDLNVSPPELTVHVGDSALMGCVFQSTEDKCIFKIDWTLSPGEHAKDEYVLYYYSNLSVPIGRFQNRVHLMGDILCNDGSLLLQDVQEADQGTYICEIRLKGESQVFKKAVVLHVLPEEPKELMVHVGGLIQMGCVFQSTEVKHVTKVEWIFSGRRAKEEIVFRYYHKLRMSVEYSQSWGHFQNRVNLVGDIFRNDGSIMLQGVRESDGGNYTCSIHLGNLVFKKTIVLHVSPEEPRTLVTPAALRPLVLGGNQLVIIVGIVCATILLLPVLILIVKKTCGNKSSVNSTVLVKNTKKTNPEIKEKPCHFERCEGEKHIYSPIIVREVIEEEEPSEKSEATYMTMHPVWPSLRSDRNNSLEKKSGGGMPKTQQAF
# B1: DW100: monoclonal anti-human JAML antibody (IgG1,κ), hybridoma ATCC PTA-13051; VH SEQ ID NO:19, VL SEQ ID NO:22 (antibody, V domains shown)
# VH: DVQLVESGAELVRPGASKLSCKALAYTFTDYEMHWVKQTPVHGLEWIGIIHPGSGGTVYNQKFKGKATLTADKSSSTAYMELSSLTSEDSTVYYCTRRRYYGSSYNWYFDVWGAGN
# VL: VLTQSPASLAASVGETVTITCRASENIYYSLAWYQQKQGKSPQLLIYNANSLEDGVPSRFSGSGSGTQYSLKINSMQPEDTATYFCEQTYDVPLTFGAGTKLEL
# B2: sJAML: recombinant soluble fragment of JAML.D1D2 tagged with 10 His residues at the C-terminus (protein)
# chain: T1 sequence (Q86YT9 20-259)
# Columns and labels:
# JAML binding with CAR = molecular target: T1, JAML binding with CAR; test: CAR binding assay (ELISA, CAR-GST on immobilized sJAML-His); details: CAR-GST 10 μg/ml on immobilized sJAML-His preincubated with antibody; FIG. 1C
# Description: FIG. 1C. CAR binding assay: sJAML-His was coated in Immulon II microtiter microtiter wells overnight, at 4° C. Microtiter wells were washed and blocked and 100 μl antibody solutions were added to wells for 1 hour RT. After washing, CAR-GST was added at 10 μg/ml for 1 hour RT, washed and the assay was developed with HRP conjugated goat anti GST followed by ABTS and OD measurement at 405 nm.
# Because certain antibodies recognize the membrane distal domain of JAML, their ability to inhibit binding to CAR was tested. By ELISA, the levels of soluble CAR-GST bound to immobilized sJAML-His preincubated with anti JAML antibodies was measured. […] Thus, these antibodies recognize three different epitopes on JAML and that both DW100 and DW55 bind epitopes close to the JAML binding site. Using a cell aggregation assay, the possibility that DW100 could inhibit the binding of JAML to CAR expressed on the surface of cells was examined. […] This again confirms previously described JAML binding to CAR, as well as the specificity of DW100 (blocking) and DW216 (non-blocking) Abs to JAML.
# [1] = molecular target: T2, CAR binding to JAML on CHO cells; test: CAR-GST binding to CHO-JAML by flow cytometry; format: cell-based; details: CAR-GST 20 μg/ml, mAbs 30 μg/ml, FIG. 7C
# Description: FIG. 7C. CHO-K1 cells stably expressing JAML (CHO-JAML) were incubated with CAR-GST alone (20 μg/ml, left panel) or in the presence of DW216 and DW100 mAbs (30 μg/ml, right panel) as described for sJAML and the binding was measured by flow cytometry.
# As it has been established that epithelial CAR is the ligand for JAML on PMN. Whether shed JAML, as well as the recombinant protein could bind to CAR was investigated. To do this, CHO cells stably expressing CAR protein (CHO-CAR) were incubated with either supernatants from PMA activated differentiated PLB-985 (that release high levels of soluble JAML upon activation, (FIG. 2)), or recombinant soluble JAML and stained with DW216 to detect bound JAML. […] The same observation was verified by IF (FIG. 7B). […] The calcium depletion disrupts intercellular junctions of the epithelium and allows for better penetration of soluble JAML.
# [2] = tested on: PMN transepithelial migration; test: PMN transepithelial migration; format: cell-based, human
# T84 monolayers = test: Epithelial barrier recovery after calcium switch (TER, dextran flux); format: cell-based, human; details: for epithelial barrier recovery (TER) after calcium depletion: 30 μg/ml, 20 m/ml, up to 24 hours, FIG. 9A
# Description: T84 monolayers grown on permeable supports were subjected to transient calcium depletion by preincubation in Ca2+ free buffer (PBS) for 40 min to disassemble tight junctions, followed by switching back to calcium containing medium without (No Tx), or with sJAML or a control recombinant IgSF protein sSIRPa (30 μg/ml). Barrier recovery was measured as transepithelial resistance (TER) at time points as indicated.
# FIG. 9B. Flux of fluorescently labeled dextran (3 k) was measured at the 24 h time point for conditions as described in panel A. N=4.
# Since CAR plays a role in epithelial barrier, the effect of soluble JAML on epithelial barrier recovery was tested. Transepithelial resistance (TER) recovery experiments and dextran flux assay were performed with T84 cells grown in transwells (FIG. 9) as well as with Caco2 cells. […] As a negative control, a related soluble IgSF molecule SIRPalpha had no effect.
prevention of CAR-GST binding to CHO-JAML [1],Molecule,inhibition of CAR binding to JAML (JAML binding with CAR),inhibitory effect on PMN transepithelial migration [2] [%],epithelial barrier recovery (TER) after calcium depletion (T84 monolayers; listed as Soluble JAML),epithelial barrier recovery (TER) after calcium depletion (T84 monolayers; listed as soluble JAML),"flux of fluorescently labeled dextran (3 k) (T84 monolayers; 24 h time point, FIG. 9B)"
blocked by DW100,B1,inhibit human JAML binding with CAR; also recorded: completely inhibited JAML/CAR interactions; also recorded: completely inhibited binding of JAML to CAR,~15,–,–,–
–,B2,–,–,decreased epithelial barrier recovery; also recorded: delayed both epithelial barrier recovery and wound restitution,significantly impaired the recovery of epithelial barrier,increased dextran flux

# From patent US10465005B2, “JAML specific binding agents, antibodies, and uses related thereto” (Emory University, priority 2011, dated 2019)
